16 sequences from the DeepSol protein solubility set can be followed below.

A short description of this series: soluble on expression in E. coli; label from the status in PepcDB or PDB records.
With “SESDSEMVPFPQLPMPIENNYRACTIPYRFPSDDPKKATPNEISWINVFANSIPSFKKRAESDITVPDAPARAEKFAERYAGILEDLKKDPESHGGPPDGILLCRLREQVLRELGFRDIFKKVKDEENAKAISLFPQVVSLSDAIEDDGKRLENLVRGIFAGNIFDLGSAQLAEVFSRDGMSFLASCQNLVPRPWVIDDLENFQAKWINKSWKKAVIFVDNSGADIILGILPFARELLRRGAQVVLAANELPSINDITCTELTEILSQLKDENGQLLGVDTSKLLIANSGNDLPVIDLSRVSQELAYLSSDADLVIVEGMGRGIETNLYAQFKCDSLKIGMVKHLEVAEFLGGRLYDCVFKFNEVQS”, the “soluble on expression in E. coli” value is reported as “soluble”. For “MAVLKGLRPRVPKGLKSPPEPWGWPLLGHVLTLGKNPHLALSRMSQRYGDVLQIRIGSTPVLVLSRLDTIRQALVRQGDDFKGRPDLYTSTLITDGQSLTFSTDSGPVWAARRRLAQNALNTFSIASDPASSSSCYLEEHVSKEAKALISRLQELMAGPGHFDPYNQVVVSVANVIGAMCFGQHFPESSDEMLSLVKNTHEFVETASSGNPLDFFPILRYLPNPALQRFKAFNQRFLWFLQKTVQEHYQDFDKNSVRDITGALFKHSKKGPRASGNLIPQEKIVNLVNDIFGAGFDTVTTAISWSLMYLVTKPEIQRKIQKELDTVIGRERRPRLSDRPQLPYLEAFILETFRHSSFLPFTIPHSTTRDTTLNGFYIPKKCCVFVNQWQVNHDPELWEDPSEFRPERFLTADGTAINKPLSEKMMLFGMGKRRCIGEVLAKWEIFLFLAILLQQLEFSVPPGVKVDLTPIYGLTMKHARCEHVQARRFSINHHHH”, the “soluble on expression in E. coli” value is given as “soluble”. For “MGSDKIHHHHHHMGVMKTPGVYIVEKNAFPNSVVEVATAVPAFIGFTQKAINGNKSLLNKPWRITSMAEFRRYYGEAPEPEFEIAEKPADSLEDAAIVMGDKSYVISQSNTKYLLYYSMMLFFQNGGGPCYIVSVGNYTNDVEAAKLLAGIPTLLKEQEPTMLAIPEAILLAEDDCISVQQASLAHCGGVMRNRVAILDVWNGHLDRQDPSGDCIESFRSKLGINYLDFSSAYYPWLHTTIVQDSDLSFKNIANTDVLIGLLKEEVTASFTDLDGLTDDQLASPSNKLRVAKRDQMLTEVDSLATVAGDAQIVLLNKTLSSMSPLYMSILLDIKGKLNLLPPSACMAGIYTMVDNARGVWKAPANVSLNAVVSPAVNISHDEQEDLNVTTQGKSINAIRTFIGEGTLVWGARTLDGNSLDWRYISVRRTMIMLEESIRLAAKAYVFEPNTANTWTTLNSMITNFLTGIWKRGGLAGSVPADAFSVSVGLGSTMTSEDILEGILRITVLVAVTRPAEFIEITFQQQMQKS”, the “soluble on expression in E. coli” value is reported as “not soluble”.

Take “MLLNLQKILKKWVICTLPKPNVTFLAIKFFNLKNEFLFFSKFCKKQPKFEILNVSYCSQNFQKYRIQYLNYFKISTFFSIKKSHIQV”: the “soluble on expression in E. coli” value is recorded as “not soluble”. The value for “MGSDKIHHHHHHMENQLLTLKNNELTVQINPKGAELTHVIENKNKFDFIWNGSEWPKHAPILFPAIGRSTDDEYLLNQKIYPMQQHGFASDYFFEIIDQKEDQISLSLKDNEETYQSYPFQFELKVTYQLVSKKLKIQFEIKNLSVKKLTFALGFHPAFNLSANFEDYQISFETKDKTLKQFEIVKNPFPYRSGKIIEINKAVSNFPLEREFFEKGLVIFDNKIEEVKLFSQETDYQMTMKMADFPYLCLWTKEDENLSYLCIEPFQGLPDILNQKQELLQKEGNISLKSNESKTYEVELTFNSNKGES” was “not soluble”. With “MGSDKIHHHHHHMKISEVATPNFLLDLDQLEKNIDKIQQICTNNNKQLWPMLKTHKSTYIARLQKNAGASGFLVGTLDEGEALIKAGFEDIMLAYPYMGEVNINRIVTMASKINLICATDNIECAKAYSEAFSKSKIECKLLIIVDCGLHRFGVEPEKVVELATEISKLENIKIVGISSHPGQVYGCSSPEGVPDVCVQEDSSMEKAYKALTDNGFNIEIVASGSTPTVESEAACKTITAVRPGNYVYYDAIQIGLGCATEDMCALTVVCTVISKNSSGYYLIDCGSKCLGLDKGAHGNSSIVGYGRVCGHPELTIDSLSEEVGKIKVNGETDIKIGDRIRIIPNHSCSTANLTSNLLGFRGDTIEKVIEVDIRENSKQIIL”, the “soluble on expression in E. coli” value is given as “not soluble”.

With “MGSDKIHHHHHHMKSRKFPIRFENFSLSVDGKSVLENITLSFVEGMNVLYGPRGSGKSSLLRSIVKLNTEIFNEISRSGSVYLFDQNVEDLDDIYVRKNALYLDTSFIDAMNQYTFDEFLKLALKRKISLENFSEKLDDLGILRMLIRGQKTPLSVFSPAEKISLLLFILEQKKPRVILMDCLLDHLDDENLEKIMDMFLKMKEERTFVISTRILQRFLYIADLLVILNNGRINYTGSPKDFVLRM”, the “soluble on expression in E. coli” value is given as “not soluble”. In the case of “MGSDKIHHHHHHMQATTATPHDIVFLFDCDNTLLDNDHVLADLRAHMMREFGAQNSARYWEIFETLRTELGYADYLGALQRYRLEQPRDTRLLLMSSFLIDYPFASRVYPGALNALRHLGARGPTVILSDGDVVFQPRKIARSGLWDEVEGRVLIYIHKELMLDQVMECYPARHYVMVDDKLRILAAMKKAWGARLTTVFPRQGHYAFDPKEISSHPPADVTVERIGDLVEMDAEWLLAEKR”, the “soluble on expression in E. coli” value is “not soluble”. With “MNLLQCYPTTTVDEMNCEEWGNGTESTQSVAACQGCIELRKEVTDLRQAVNLILPMLPLYPTIGNGFNATGLAAQPTLQHVIQQSLLRKRPVAQTPTVPQPECPGQIRPVLSSPAAALQNVIMLNPWIMGSSLKPASPTLPNGQIPTTIGETSLQGTDDQTVKWIGPSSVDSNGQKTDSSAASAGDNQNIDVIGDGSESPTSSNHSAQEIALMTSQQTFLNALKDSSFLFTNPVPTVETAPPLRVAPPINGTTNGTAKAGGPERKPRKPVNDDIVKIVRNQDLSEENISMFEIPVPKAIASDPTFRPVSEQQIIQQIIQGKKYEEMEVGECMIQLCKKLAEKRVFGPRLMSQTTVAGLNHSNYANLPIKGICYIQHVCRKVLYDKFENEEDFWDKFREAMRKLAARCRRVRHAKKTKHNREEAQAEMLSKRYGEDMPFNLNGAGLIRPKVETVSPEANILNSDQIKSQLESLFAHIPKTESETPLIEIIQQNISLFTHLIRTKVESQSPPLQGPQ” the entry was “not soluble”; with “DKLTRQPFFIKLINYLQIHDDVTLRQIKRNFADTEHLERSIEDYVQAGYVLRENKHYYNAFELLENLDGLTLDSQIFVDDQSSIYQDLLALTFETYLSNQTNAALIIEKTDISRDALTLSNYFFKLNENFPLSRKQKPLYHLLGDVNPNYALKYMTTFLLKFWGKDVVKQKRPDIFVQALVLLGYLEQVGKQSYCLKMTFDKEKLIFAS”, “soluble”; with “MGSDKIHHHHHHMIVKEINPHFEDYVFNWEQTYQFLVGGYGSSKSYHTALKIVLKLLKEKRTALVIREVFDTHRDSTFALFQEVIEELGLTKAVASLSSPLQLRFHNGSRIMFKGMDNPAKLKSVHNISLIWIEECSEVKYEGFKELIGRLRHPELKLHMICTTNPVGTSNWTYRHFFRDERKKRFVLDDSELYEKRTIVKGDTYYHHSTANDNLFLPESYVKQLDGLKEYDPDLYRIARKGRFGVNGIRVLPQFEVLPHDQVKKCIAAISKPIFRTGMDFGFEESYNAVVRLAVDPEKKYLYIYWEYYQNKMTDDRTAEELREFIETQELIKADSAEPKSIQYFRQQGFRMVGARKFPGSRLQYTKKVKRFKKIFCSDRCENVIYELETLTYAKDKNGALIEDEFTIDPHTLSAIWYALDDYEVADMKETAHKRMRPNRERRRS”, “not soluble”. With “MLDDVLALIREHDRFFITTHLGPDGDAVGSQLALGRFLEKMGKSVAMVNADEVDYNLDWMPGAGDIAVFDGSLGQHEALAEAEVAFVLDTNDEERIGKVGSLVRDATATTVLVDHHLEPEHWFDVFFVREEAAATGELVYEIIDGLAPDLIDEGIATALYTAIMTDTGSFRYSSVTPALHRSVADILERGGIGPAPIHETIYDRKSMPGLRLLGRMLNRIRLRYNGQLGYSVVTQRMVEDTGASWDDKQGFVNYVLSIEDVKTALLFSETDDGAKISFRSEADVRVDQWARHFGGGGHRNAAGAYVKRPTFEKTIETVIDAASDYIAFDARHAPDDDLSPEDQSYLETLLDDPSDSPLEHHHHHH” the entry was “not soluble”; with “MGSDKIHHHHHHRECVQTSLSWRNDTTGIWETAGWWNSANVLTATIRYGAVTKDPAIPSVIEDVFEKARHYQVGVDSTGTPRYCDNFINDYYDDEGWWALAWIEASKLTGEKKYLDMAEIIFDDMTTGWSDACGGGIFWKKNPLHYKNSIANNLFSLTAIRLYKATQNPAYLDWFKKNVDWYMRTGMINTNIYQIEDGTKDDCTPNRNAHYTYNQGVAIAVLAEMYLQTNDKSYLELAEKIADATITTQLITDEGILREMKPEIDDSNDGVQFKGIFIRHLAFLYEVTKNPAYKDFILKNAESIITKDYDPTSKSFGCYWYGPFHKENSAANACALECVIEAYDLTK”, “not soluble”; with “MSRNRVMSIDFQQLPHAGIRSLIPYVPGKSIEELAKEKGITDIIKLASNENPLGCSPLALSVIQTMSSHYIATYPSPWNHPLMSKLASYLKVKPEQLFLSNGSDYLFNILLNCFALHTDRHILTHDYAFSTYAIQANSLQIPINSVPIGHNWEVNITDIVNACNQQTGIIFIANPNNPTGVLIQQEEIKYLLEQIPKSTLLVLDEAYYEFAASQLTVNSLDWLEEHPNLVVTRTFSKIYGMAGLRLGYAIANPSIINILKRVQLPFIVNQVALAAAYAAIDDDDFIQSSLKMNNEGMLQLQAGFNELNIKYLPSSCNFLTFDCEEDSMALYNYLLDNGIIVRPLHAYKMNNFIRVTIGTKEQNSRFLTALKNFYL”, “not soluble”. With “MIRFARPKPIIDSVSYNLLQKCYASGTPKGKSKLKTGQSLKRNKLTIKKGGGNGGGRGGDEVDKGKGRISDQCINAPCPVRYLRPKEREREARREKLGLISKARQKEIDFQKKGGSFTMGVTTAPMRIGTPGLDYISLGIFTEDELPKYKVTVEDGIRLAKEYSRVLMREHRARRVAEISLMKMRNAAVEALPENLKKAALVRDLTPFPVSRGTVRLLHLLKGIWRGL” the entry was “soluble”; with “MGHHHHHHSHMASSTSLPAPGSRPKKPLGKMADWFRQTLLKKPKKRPNSPESTSSDASQPTSQDNPLPPSLSSVTSPSLPPTHASDSGSSRWSKDYDVCVCHSEEDLVAAQDLVSYLEGSTASLRCFLQLRDATPGGAIVSELCQALSSSHCRVLLITPGFLQDPWCKYQMLQALTEAPGAEGCTIPLLSGLSRAAYPPELRFMYYVDGRGPDGGFRQVKEAVMRCKLLQEGEGERDSATVSDLL”, “soluble”.
